Consider 1 molecule from publication doi:10.1101/2020.12.08.416511 (bioRxiv, 2020).

This test deals with human β-cardiac myosin subfragment 1 heavy chain (amino acids 1-841) (human, UniProt P12883 1-841). Description: pull-down.
Chain of human β-cardiac myosin subfragment 1 heavy chain (amino acids 1-841) (P12883 1-841): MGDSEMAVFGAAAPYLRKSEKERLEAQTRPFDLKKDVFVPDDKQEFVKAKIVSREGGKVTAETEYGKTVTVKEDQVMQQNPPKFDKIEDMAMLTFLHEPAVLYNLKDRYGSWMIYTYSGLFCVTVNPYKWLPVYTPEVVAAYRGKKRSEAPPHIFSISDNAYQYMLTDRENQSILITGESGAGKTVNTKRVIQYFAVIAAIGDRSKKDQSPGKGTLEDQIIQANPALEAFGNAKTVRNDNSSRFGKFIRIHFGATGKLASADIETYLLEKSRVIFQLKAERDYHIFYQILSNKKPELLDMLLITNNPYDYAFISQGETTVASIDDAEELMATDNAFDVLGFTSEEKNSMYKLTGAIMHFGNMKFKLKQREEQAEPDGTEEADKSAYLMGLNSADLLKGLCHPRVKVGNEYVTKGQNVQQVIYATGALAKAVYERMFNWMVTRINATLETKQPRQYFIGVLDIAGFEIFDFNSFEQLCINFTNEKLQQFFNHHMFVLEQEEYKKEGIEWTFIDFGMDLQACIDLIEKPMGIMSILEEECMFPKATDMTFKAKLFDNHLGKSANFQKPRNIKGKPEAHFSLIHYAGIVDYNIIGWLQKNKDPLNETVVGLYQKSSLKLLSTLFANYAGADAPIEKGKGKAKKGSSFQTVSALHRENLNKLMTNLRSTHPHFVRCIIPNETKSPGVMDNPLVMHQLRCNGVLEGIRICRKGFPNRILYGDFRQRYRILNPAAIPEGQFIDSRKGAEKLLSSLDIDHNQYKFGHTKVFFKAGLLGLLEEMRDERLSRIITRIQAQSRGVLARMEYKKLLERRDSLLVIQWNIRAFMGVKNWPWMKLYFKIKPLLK

B1: Alexa 488-labeled human ventricular cardiac regulatory light chain (V105C) (natural protein)
chain: MAPKKAKKRAGGANSNVFSMFEQTQIQEFKEAFTIMDQNRDGFIDKNDLRDTFAALGRVNVKNEEIDEMIKEAPGPINFTVFLTMFGEKLKGADPEETILNAFKCFDPEGKGVLKADYVREMLTTQAERFSKEEVDQMFAAFPPDVTGNLDYKNLVHIITHGEEKD
modifications: Alexa Fluor 488 C5 maleimide on the single reactive cysteine at position 105
As usually defined, the stoichiometry N is the number of molecules, sites or subunits per partner or assembly. Turning to B1, the “stoichiometry N” value was 1 A488RLC per M2β-S1.
